Test results from patent US20050065320A1.

Legend:
[1] = target: g12 mutant (Env protein) of the HIV-1 isolate 133 (HIV-1 primary isolate 133); assay: capture ELISA on lysates and supernatants, F105 1 µg/ml
[2] = target: g12 mutant (Env protein) of the HIV-1 isolate 133 (HIV-1 primary isolate 133); assay: capture ELISA, 17b 1 µg/ml

Substance | signal relative to the native protein [1] [times] | signal relative to the native protein [2] [times]
F105 human monoclonal antibody (NIBSC) | < 4.5 | 
17b human monoclonal antibody |  | 3
